Measured values taken from the DeepSol protein solubility set.

test: soluble on expression in E. coli; label from the status in PepcDB or PDB records

Row | Sequence | soluble on expression in E. coli
1 | MILMRTIDWNEESNSVVLVDQTLLPQEYKVIECKTLSSLCEAIQSLRIRGAPALGAAGGFGIALAAYLSGAKDIESMTKDLKVAAKALKSTRPTAVNLAWGVDRVLNAISDAFDFRGIRDIALQEARDIAEEDIETNKLIGKYGAKLLKDGDTVLTHCNAGRLACVDWGTALGVVRSAIADGKEIKVLACETRPLNQGSRITTWELMQDKIPVTLIADSMAGWAMRQGLVNSVLVGADRITQDVVFNKIGTYTHSILAREHEIPFYVAAPVSTFDFEGWEGSIKIEMRNPDELRFAGCQQLAPEDVPVYNPAFDATPMENVTALITERGVFYPPILLDEVLVLEHHHHHH | not soluble
2 | MILNILRLPHADEPTTSQSVQDYPLVHFSPRRHQKFRTIISVGDSDVIKDSSLTDEELYNIIHASPIARKSSTVSSTDSGYLGSSGASSSCVRSREGSTVSSTITVERTRRGGSTASSEPDSVADSEGAGSYSSFSSIASTASRMLGRAADCLVLMTKRNGWSGDAGSPSDEKGSSLDAQSWTTAIQSALMPVTPQSSVVGGKRIDKLKVPTEGKTRPPY | not soluble
3 | MILNPQQRTKLDSRRDDLFYAAPRFVTHVDDFFLARLTDLYRQYLQPQMRVLDLMSSWVSHLPPELSFQEVVGHGMNAAELARNPRLDRYFVQNLNEELALPLEDASFNAVLMAVSVQYLQYPEATFTEIARILKPQGVVIVSFSNRMFFEKAIQAWREGSEGDRVQLVQTYINSTPSLKVIATHLPRLWPWRGFTDPFYAVVGQKQAVLEHHHHHH | soluble
4 | MILPNPLARRLFLHLHALAEPPTGPAKGEALLALIDRLGFVQIDSISTVARAHHMILFARRQAYRPEALDRLLAQRHLFEHWTHDAAVIPARFFPFWHHRFRRDRPRLLARWRGWQREGFEEQFDAVLARIAESGPVSAAEVGEEEERGTGGWWDWHPSKAALEYLWRVGELSITRRDSFRKVYDLTSRVIPSGWLAMDPGDAATIHWACSEALDRLGFATSGELAAFWAAASPAEAQAWCHDALARGEIVEVRVEGADGSLRRSYARPEVAALAEAAPDPSPRLRILSPFDPVLRDRARAERLFGFRYRIEVFVPEAKRTYGYYVFPILEGDRLIGRIDMRAHRESGSLRVRALWPEAGVRLGSRRLGRLGAELDRLAQFAGCDQVKFEPDWLRETLPEGSVAGDLEHHHHHH | not soluble
5 | MINRPSTVNNPFIGTNAVLRLRQQRLEQSTKPFRARGSRVMRCQQCLLPAINCLCHTIQAQPSRSRVCLVMFDTEPLKPSNTGRIIADILPETQAFRWSRTEPDPQLLATLQDPDVQPYLVFLADAAEEGRQVFQQLPATEKPALFVLLDGTWPEARKMFRKSPYLDNLPILSLNVEALSRYQLREASSAGQHCTAEIAIALLAQAGDIVAADALSQHFDRFRQHYLAGKPHHRLQENLPIVTAQPAESVLEHHHHHH | not soluble
6 | MINRVPTNIITGFLGVGKTTAILHLLATKPAHEKWAVLVNEFGEIGIDGAIMSEQGAMIKEVPGGCLCCTAGVPMSVGINALLRQKPDRLIIEPTGLGHPKQVVATLISEQYQPYVDLKATIALMDPRHLSMDKYRSNQNFNDQLASADIVLGNKVDQCSSSDIDAFNDWVTDQTPAKTFSQLIKQGQFPIELLDMPRLVGHASTHIDSHHHHHAADEPQFQLAPQQPFLRKENRGQGYFSCGWLFGAEYQFNFDLLFQLLNDLTAERVKGVLNTDRGCYAFNVANGVVSVTEMSLDGFESRLEVIDSQLMPWSELESILLKIAGIPQALEHHHHHH | not soluble
7 | MIPGMRATPTESFSFVYSCDLQTNVQVKVAEFEGIFRDVLNPVRRLNQLFAEITVYCNNQQIGYPVCTSFHTPPDSSQLARQKLIQKWNEWLTLPIRYSDLSRDAFLHITIWEHEDDEIVNNSTFSRRLVAQSKLSMFSKRGILKSGVIDVQMNVSTTPDPFVKQPETWKYSDAWGDEIDLLFKQVTRQSRGLVEDVPWLDPFASRRIEMIRAKYKYSSPDRHVFLVLEMAAIRLGPTFYKVVYYEDETKNMRVSTSVNGGVGIVSACTRYCVADPELLLESLAEVKHSAMTRRIRDVEDERHRQVKPNKQAKDRLETIVNLPSSQVLTREQRDLVWKFRHYLRQFPKALNKYLRSVNWVHPQEVKTALALMNDWELIEAEDALELLSSAFTHPAVRAYSVSRLLEAASPEQVLLYLPQLVQALKYEQGQQLPEEGNPVPVVSEEEGKIPSVATTPTEELEGRDMTVVTKKEARKAASGDLATFLIDYALASPKVSNYLYWHLKTEIESTKESKEEHSKMYQNIQDRLMEALVKRPDTRAQVDSLHQQQIFVEDLIILMNEAKARGGRLNESKSAEFRTMLSRAKHMLDLKGVHLPLDPSFRLSSVIPDTASFFKSEMMPAKISFKVLQPNGKADRNIPEEYTVIFKTGDDLRQDQLIQQMVRLIDIILKKGQLDLKLTPYLVLSTGVGQGFVQCIKSKPLRAIQEQYKAHKMDCIREAMKELRPGDGPFGIEPNVIDNYVRSLAGYSVIMYILGLGDRHLDNLLLCENGKLFHVDFGFILGRDPKPMPPPMKLTSEMVQVMGGVKSKQFLEFVQHVDSAYRILRRHSNVLLNLFSLMLDAGIPDIAAEPDKAIFKIEQRLRLDLSDEAATKHIFTQIESSLNAKMAMISDIIHAYKQNLM | not soluble
8 | MIPGTIPTSYLVPTADTEATGVVSLSARAAMLNNMDSAPLSNGGDVDLYDAFYQRLLALPESASSETLKDSIYQEMNAFKDPNSGDSAFVSFEQQTAMLQNMLAKVEPGTHLYEALNGVLVGSMNAQSQMTSWMQEIILSGGENKEAIDW | not soluble
9 | MIQAVLFDLDGTLADTALDLGGALNTLLARHGLPAKSMDEIRTQASHGAAGLIKLGAGITPDHPDYARWRTEYLDEYDSRYAQDTTLF | not soluble
10 | MIREDEVRKLVGEMREPFLQRPLGELDAVKEIKIKPEKRHISVKVALAKTGTAEQMQIQQEIVNVLKGAGAETVGLRFEELPEETVAKFRAPSAEKKTLLNMDNPPVFLAVASGKGGVGKSTVSVNLAISLARLGKKVGLIDADIYGFSVPDMMGITVRPTIEGEKLLPVERFGVKVMSMGFFVEENAPVVWRGPMLGKMLNNFFHEVEWGEVDYIVLDLPPGTGDVALDVHTMLPSCKEIIVSTPHPTAAFVAARAGSMAIKTDHEVVGVIENMAYYESAKTGEREYVFGKGGGDKLAEELNVPLLGRIPLKQPDWDKDQFAPSVYDENHPIGEIYQDIAKKIDAKMSVQVLEHHHHHH | soluble
11 | MIREFSEDDIEPLATGAWILGTGGGGNPYISTLNLRRLYAEGRRVKVMDPMALADDDMVAVVSKMGAPLVGQERLGDPAHLARAVEVMEDYLGKPFRAIMSVEIGGSNALSSFLAAAVLDRPVVNADAMGRAYPEAQMTSFAIGNLPMFPLSLVDVRDNEVIVTRAASWKWMERISRKVCTEVGSTAATCKAPRTGKEVKEWGIHYTVTKATELGRAVMEARARHDDPVQAVLDHEGGKQLFRGKVVDVARETTGGFLRGSTTIEGIDADRGSRMELAFQNEWAVAFRDGQPVAMTPDLLCLLDTVSGGAIGTESVRYGQRVTVVALPAPELLTTPAGIDAVGPRAFGYDIDFRSVFPLEHHHHHH | soluble
12 | MIRINNIILDIDEDLENLKNKAAKKLKVSKESFESFKILRESIDARKKDVIKFNYSVEVKCKNESKIISKIHGKDAILEKNKEEERFQFGNEKLKHRPIVIGTGPCGMFAALTLAENGYAPLVIERGENVEKRTETVDNFWKTGVLNTESNVQFGEGGAGTFSDGKLTTRIKDPRCTYVLEEFIKSGAPEEIGYVGKPHIGTDILKKVVKNIRERIISLGGEVKFNSKLEDIIIKNDSIEAVVVNGAEIPCECLVLAIGHSSRDTYEMLHKKGIFMDPKPFAIGVRIEHPQDFINESQYGKYKNHPRLKAADYKLTHTTKDKRGVYSFCMCPGGEVVASSSEDERLVCNGMSYYKRDLENANAALVVTVNSEDFKASKELYNKDISDNSPLIGMEFQRYYEHLAYLAGGGNYNAPIQLVGDFMKDTVSSKLGSVKPSYTPGYKFASLSECLPPYVIAALKEGLVNFDKKITGYMLSDAVMTGIETRTSAPLKITRNESLESISLKGLYPSGEGAGFAGGIISAAVDGVKSAESIMRKYKILEHHHHHH | not soluble
13 | MIRKDDILKMTEKGISVFRYYLPVDFKVGKNFLNPFYKDTKASCNIYYERKAGVFKMKDFGNEDYSGDCFELVGRLNGLSCKEPKEFVEIMEMINRDLHLGLSAHEEYHVSHSKVPQKSEVVSEEPKAKSVRPYTVVQKPFTAAELAFWGKSGIGENVLKAYRTVSLKKFSSENQERKPFSCMTSVDEPMFGYMGKQHIKVYRPCSQMRFLYAGDFGDNYCFGLEQLPAKGDLLFITGGEKDVMSLAAHGFHAICFNSETAFIPAAVIHRLSFRFKHIILLYDVDSTGLKSSAKREEELKEYGIKRLLLPLAGTKTEKDVSDYFMLGNSREDLIKLFLDYLETLYSETMSALKSCEVDFNNPPPIAQMIVSVNDVPLGTQGNLLCITGGEGTGKSNYVAALIAGAIRPTGTDVDALGVTLHENSRNKAVLFYDTEQSEVQLYKNISNLLRRCGREAMPEWFKAYCLTGMSRKERLLSIIQSLDKYHYQYGGVHLVVIDGIADLIKCANDEAESIAVVEELYRLAGIYKTCIVTVLHFIPNGLKLRGHLGSELQRKAAAILSIEKDSDPAISVVKALKVRDGSPLDVPIMQFSWDKEKAMHVYLGEKPKEEKDKRKEDELVAVAKEVFSRRRFVTYVELAEEIQSILEVKERTAKSYIRFMREKEIILKSSDNQSYYVVGNF | not soluble
14 | MIRLAPLITADVDTTTLPGGKASDAAQDFLALLSEALAGETTTDKAAPQLLVATDKPTAKGEPLVSDILSDAQQADLLIPVDETPPVINDEQSTLTPLTTAQTMTLAAVADKNTTKDEKADDLNEDVTASLSALFAMLPGFDNTPKVTDAPSTVLPAEKPTLFTKLTSAQLTTAQPDDAPGTPAQPLTPLVAEAQSKAEVISTPSPVTADASPLITPHQTQPLPTVAAPVLSAPLGSHEWQQSLSQHISLFTRQGQQSAELRLHPQDLGEVQISLKVDDNQAQIQMISPHQHVRAALEAALPVLRTQLAESGIQLGQSNISGESFSGQQQAASQQQQSQRTANHEPLAGEDDDTLPVPVSLQGRVTGNSGVDIFA | soluble
15 | MIRLILILINILFCHYLYALDCQKRLFDISINEKLSIQESLDELAKYCSFSIIVKDKIAKEKLETLQNSVNIHQMSLDEIFNFFIKEHDLSYDFDGKILRISGINTKIFKISYITSIREGQSITKASVDAKPRQSEYSGSFDDAEDNMIKSMEKFDFWQNIEKEIIVLLKNSHEDYEAKTPIINPNAGLIIVTGTNSQLKSVKNYLQKLENRLKKQVIIDVSILAVSLNESHSSGINWQNFNIGLNSQVNNENSFIQFQNGQGFVKNLGLRANLNFDSIINFLSQNGKTSVLSNPKLMALNNQQAIISVGDTINYQVKESSKGTENGTTVSESYNNYSIFVGILLNILPEISDDGKIMLRINPSLSDFKYPEDNKRQKEPRTIAPDTIQKKLSSVVQVENNQTLILGGLISHDKSNEKNSINFLSKIPILGSLFKGEVLNSKATEIVFIITPSIVDSVNAPSLKDLGFKHYELEHHHHHH | not soluble
16 | MIRLSNENTIFFMDKENVPIASCQSGDTVIFETKDCFSDQITNEEQALTSIDFNRVNPATGPLYVEGARRGDMLEIEILDIKVGKQGVMTAAPGLGALGESLNSPTTKLFPIEGDDVVYSTGLRLPLQPMIGVIGTAPPGEPINNGTPGPHGGNLDTKDIKPGTTVYLPVEVDGALLALGDLHAAMGDGEILICGVEIAGTVTLKVNVKKERMFPLPALKTDTHFMTIASAETLDAAAVQATKNMATFLANRTALSIEEAGMLLSGAGDLYVSQIVNPLKTARFSLALHYFEKLGVDLCNLEHHHHHH | soluble
17 | MIRPKPIAFEQPQTMPSILYPIHPPFRREELVTPTRENQIFKELLISISIYNSGEERLERITRPPLMASIPNGRFYNCRVRSSGSKTKAIFQQFKISVCSRE | not soluble
